The results in this text go back to patent US20020132976A1, “Immunogenic peptides derived from prostate-specific antigen (PSA) and uses thereof” (priority 2000, published 2002).

The target in test [1] is T1, HLA-A0201 molecules on T2 cells (Homo sapiens, UniProt P04439, D140Y/D185E/D98H/E176V/E277Q/G131W/G231S/I119V/I121R/I166T/I218V/L300P/L318F/N151K/N90K/P208A/P217A/Q86G/Q94H/R138H/R169H/T345S).
T1 construct: endogenous in cells; host or cells: T2 cell line (Dr. Peter Creswell, Yale University)
As to the kind of experiment: Capacity of PSA derived peptides to bind and stabilize HLA-A0201 molecules on T2 cells (BB7.2 antibody, flow cytometry). It is filed as cell-based. To be noted: for Fluorescence Index (FI): T2 cells; for HLA-A0201 binding as judged by Fluorescence Index (FI) values: membrane-bound HLA-A0201 molecules on T2 cells. Here is the method:
The ability of the PSA derived peptides described in Table 1 to stabilize membrane-bound HLA-A0201 molecule was assessed utilizing the T2 cell line (Dr. Peter Creswell, Yale University). The cell line has been well documented to have a defective TAP (i.e. Transporter for Antigen Processing) transporter function. As a result, the majority of intracellularly generated peptides are not transported into the endoplasmic reticulum and thus are unable to associate with newly synthesized HLA class 1 MHC molecules (i.e. HLA-A0201; Salter, R D and Creswell, P. (1986) EMBO J 5:943). […] The stability of the surface HLA-A0201 molecules can be restored upon interaction with suitable exogenous peptides. The stabilization of the conformation of the class 1 MHC molecules is accompanied by the formation of an immunodominant epitope recognized by a mouse monoclonal antibody (designated BB7.2; American Type Culture Collection (ATCC)). Thus, the detection of this specific epitope is indicative of stable membrane-bound HLA-A0201 molecules loaded with peptide. Subsequent dissociation of peptides from the HLA class 1 MHC molecules results in the loss of BB7.2 monoclonal antibody binding.
T2 cells were propagated in Iscove's complete medium (iscove's medium supplemented with 10% heat-inactivated bovine serum, 120.0 units per ml of penicillin G sodium, 120 μg per ml of streptomycin sulphate, and 0.35 mg per ml of L-glutamine). The ability of PSA peptides (Table 1) to bind and stabilize surface HLA-A0201 molecules on T2 cells was determined utilizing a protocol documented in the art (Deng, Y. (1997) J Immune 158:1507-1515). In essence, 0.5×10^6 T2 cells were incubated with 125.0 μM of the test peptide in 200.0 μl of serum-free culture medium (Iscove's medium supplemented with 120.0 units per ml of penicillin G sodium, 120.0 μg per ml of streptomycin sulphate and 0.35 mg per ml of L-glutamine) overnight at 37° C. Subsequently, cells were washed twice with Iscove's medium (without bovine serum) to remove free PSA peptide. To the cell pellet was added 1.0 ml of complete Iscove's medium (supplemented with fetal bovine serum (10% final)) containing 5.0 μg per ml of brefeldin A (Sigma), 12.5 μg per ml of anisomycin (Sigma) and 5.0 μg per ml of cyclohexamide (Sigma). […] The cells were subsequently incubated 30 min on ice prior to two washes with ice-cold PBA (phosphate buffered saline (pH 7.2) containing 2.0% bovine serum). 100.0 μl of PBA containing 5.0 μg of monoclonal antibody BB7.2 was added to each test sample. The reaction was allowed to proceed on ice for 45 min. Cells were then washed three times with ice-cold PBA. The binding of BB7.2 was detected via the addition of 100.0 μl of PBA containing […] of goat anti-mouse IgG-Fc fluorescein (FITC) conjugate (BETHYL Laboratories Inc.). After a 30 min incubation on ice, cells were twice washed with ice-cold PBA, and twice with ice-cold PBS (pH 7.2). Cells were immediately fixed by the addition of 50.0 μl of 1.0% paraformaldehyde. Samples were analyzed by Flow Cytometry. Results were expressed in units of Fluorescence Index (FI), calculated by the equation: […]
Mean Fluorescence (MF) of experimental sample (peptide treated)−MF of control sample (cells not peptide treated) MF of control sample (cells not peptide treated)
An FI value of 0.5 or greater was deemed to be significant.
For orientation: In flow cytometry, cells or beads pass a laser one at a time.

In the next test the test system is A2Kb transgenic mouse. In words: Immunogenicity of PSA peptide in A2Kb transgenic mice (51Cr-release CTL assay). In kind it is in vivo. To be noted: 100.0 μg peptide subcutaneously in IFA with I-Ab-restricted peptide; spleenocytes re-stimulated in vitro; 4 hr 51Cr-release, P815-A2Kb targets; FIG. 1. The procedure: The A2Kb transgenic mouse was used to assess the immunogenicity of the HLA-A0201 binding PSA peptides. Mice of the B1O background (transgenic for the A2Kb chimeric gene) were purchased from the Scripps Clinic in California, USA. Mice were injected subcutaneously at the base of the tail with a dose of inoculum prepared by emulsifying 100.0 μg of the test peptide and 100.0 μg of an I-A^b-restricted peptide (described in Milich, D. R. et al. (1987) J. Immune 139: 1223-1231) in incomplete Freund's adjuvant (IFA). Spleens of the experimental animals were collected on the 10th or 11th day post immunization. Spleenocytes of the experimental mice were prepared and cultured to enrich for CTLs before being assessed for effector activity. In vitro re-stimulation of the in vivo generated CTLs was performed by co-culturing in a 25 cm^2 tissue culture flask 3×10^7 responder cells (i.e. spleenocytes) with 1.3×10^7 irradiated autologous LPS (lipopolysaccharide)-blasts which had been pulsed with the respective peptide (100.0 μg per 10^8 cells). Cultures were kept in a 37° C., humidified CO2 incubator for 6-7 days before being tested for effector function in a standard 4 hr in vitro ^51Cr-release CTL assay as follows. The responders were harvested from the 6-7 day cultures and washed twice with RPMI-1640 medium (without bovine serum). […] Supernatant aliquots were then removed and counted for radioactivity.

Setting [2] is: 125.0 μM peptide overnight at 37° C., then 3.0 hr de-stabilization step, FI of 0.5 or greater deemed significant.

Marks after values point to notes of the source that are not given here.

Regarding DLHVISNDV [CLP-317], in test [1] (setting [2]), the “Fluorescence Index (FI)” value came to 0.

As for “DLPTQEPAL (CLP315) [CLP-315, PSA derived peptide, preproprotein positions 140-148]”, the “Fluorescence Index (FI)” value in test [1] (setting [2]) is 0.

On to “KLQCVDLHV (CLP316) [CLP-316, PSA derived peptide, preproprotein positions 170-178]”, for which, in the test with A2Kb transgenic mouse, the “Immunogenicity / epitope-specific CTL response” value was “immunogenic and capable of eliciting an epitope-specific CTL response”. The “Fluorescence Index (FI)” value in test [1] (setting [2]) is listed as 2.7. Moreover, the “HLA-A0201 binding as judged by Fluorescence Index (FI) values” in test [1] was “demonstrated HLA-A0201 binding”. Turning to “MWVPVVFL (CLP313) [CLP-313, PSA derived peptide, preproprotein positions 1-8]”, in test [1] (setting [2]), the “Fluorescence Index (FI)” value is listed as 1.0. Moreover, the “HLA-A0201 binding as judged by Fluorescence Index (FI) values” in test [1] was “demonstrated HLA-A0201 binding”. For PLYDMSLLK (CLP320) [CLP-320], in test [1] (125.0 μM peptide, analysis did not include 3 hr de-stabilization step), the “Fluorescence Index (FI)” value is listed as 0.2**. Besides, in test [1], the “HLA-A0201 binding as judged by Fluorescence Index (FI) values” is recorded as “does not exhibit binding”.

Consider VLVHPQWVL [CLP-314], for which, in test [1] (setting [2]), the “Fluorescence Index (FI)” value was found to be 1.1. Also, the “HLA-A0201 binding as judged by Fluorescence Index (FI) values” in test [1] was “demonstrated HLA-A0201 binding”.
